Experimental findings from US20160251435A1 (INHIBRX, published 2016) are described below.

Substitutions are numbered along the chain they refer to. Like-named read-outs stand apart in the source and are kept apart here.

Broadly, the EC50 (read off the curve) is the concentration that produces a half-maximal response. A lower EC50 (read off the curve) goes with an effect from little substance.

Test [1] deals with T1, human CD47, endogenous cell surface form (Raji, CCRF-CEM cells) (human, UniProt Q08722 19-323).
T1 construct: the cells carry endogenous CD47; also called cell surface CD47
As to the kind of experiment: flow cytometry on Raji cells, MFI (FL4). For orientation: In flow cytometry, cells or beads pass a laser one at a time.
Description: (§1) Humanized antibodies were tested for their ability to bind Raji cells by flow cytometry (FIG. 7). […] Apparent affinities were determined by non-linear fits (Prism Graphpad Software) of the median fluorescence intensities at various antibody concentrations.

Test [2] concerns the target T1, human CD47, endogenous cell surface …. As to the kind of experiment: flow cytometry on Raji cells, MFI (FL4). The source holds these as a separate data set.
Description: as §1
For test [3] the target is unchanged. As to the kind of experiment: flow cytometry on Raji cells, MFI (FL4). The source holds these as a separate data set.
Description: as §1
Test [4] shares this target. The test is described as follows: flow cytometry on Raji cells, MFI (FL4). The source holds these as a separate data set.
Description: as §1
The target is the same in test [5]. The test is described as follows: flow cytometry on Raji cells, MFI (FL4). This is another data set of the same source.
Description: as §1
For test [6] the target is unchanged. As to the kind of experiment: flow cytometry on Raji cells, MFI (FL4). The source holds these as a separate data set.
Description: as §1
For test [7] the target is unchanged. As to the kind of experiment: flow cytometry on Raji cells, MFI (FL4). This is another data set of the same source.
Description: as §1
Test [8] has the same target. As to the kind of experiment: apparent KD, flow cytometry on cell surface CD47, non-linear fit of median fluorescence.
Description: Apparent affinities were determined by non-linear fits (Prism Graphpad Software) of the median fluorescence intensities at various antibody concentrations.
The target is the same in test [9]. As to the kind of experiment: flow cytometry blocking: SIRPa-Fc binding to CCRF-CEM cells with rising antibody (method of Example 3).
For test [10] the target is unchanged. The test is described as follows: apparent KD, flow cytometry on Raji cells, non-linear fit of median fluorescence.
Description: as §1
Test [11] shares this target. As to the kind of experiment: flow cytometry on CCRF-CEM cells, FITC anti-mouse IgG, MFI-FL1.
Excerpt: Bound CD47 antibodies were detected using a FITC conjugated anti-mouse IgG secondary antibody (Jackson ImmunoResearch).
Test [12] shares this target. The test is described as follows: apparent KD, flow cytometry on Raji cells, non-linear fit of median fluorescence. This is another data set of the same source.

B1: humanized antibody AB2.05 (human IgG1) (antibody, V domains shown)
VH: QMQLVQSGAEVKKTGSSVKVSCKASGFNIKDYYLHWVRQAPGQALEWMGWIDPDNGDTEYAQKFQDRVTITRDRSMSTAYMELSSLRSEDTAMYYCNAAYGSSSYPMDYWGQGTTVTV
VL: NIQMTQSPSAMSASVGDRVTITCKASQDIHRYLSWFQQKPGKVPKHLIYRANRLVDGVPSRFSGSGSGTEFTLTISSLQPEDFATYYCLQYDEFPYTFGGGTKVEIK
As for B1, the “EC50 (read off the curve)” value in [1] is ~0.3 nM; in test [2], ~0.2 nM; in [3], ~0.1 nM; in [4], ~0.2 nM; in test [5], ~0.1 nM.

B2: AB2.09 (antibody, V domains shown)
VH: B1 VH
VL: B1 VL with N1D
In the case of B2, in test [4], the “EC50 (read off the curve)” value is ~0.2 nM.

B3: AB10.14 (antibody, V domains shown)
VH: B1 VH with G56T
VL: B1 VL with K24R, S26R, D28G, D56S
In the case of B3, in [6], the “EC50 (read off the curve)” value was ~0.3 nM.

B4: AB15.05 (antibody, V domains shown)
VH: B1 VH with F27Y, N28T, K30T, D31Y
VL: B1 VL
Take B4: the binding result in test [7] is on record as “binds”.

B5: humanized antibody AB6.12-IgG4PE (antibody, V domains shown)
VH: B1 VH with N55Q
VL: B1 VL with D56S
notes: Igkappa light chain; also called AB6.12-hIgG4PE
For the molecule B5, the Kd in test [8] amounted to 0.0346 nM. Moreover, in [9], the “IC50 (read off the curve)” value was ~0.3 nM.

B6: AB02.06 (antibody, V domains shown)
VH: B1 VH
VL: B1 VL with N1D, A10S, M11L, F36Y, V43A, H46R
notes: humanized variant of 2A1; also called AB2.06
On to B6, for which the binding result in test [2] is on record as “binds”.

B7: AB17.05 (antibody, V domains shown)
VH: B1 VH with F27Y, N28T, I29F, K30T
VL: B1 VL
Consider B7, for which the “EC50 (read off the curve)” value in [4] was ~0.2 nM.

B8: AB03.09 (antibody, V domains shown)
VH: B1 VH with Q1E, M2V
VL: B1 VL with N1D
notes: humanized variant of 2A1; also called AB3.09
For the molecule B8, the “EC50 (read off the curve)” value in test [4] is ~0.1 nM.

B9: AB22.05 (antibody, V domains shown)
VH: B1 VH with M81L, E82Q
VL: B1 VL
Take B9: in [5], the “EC50 (read off the curve)” value was ~0.1 nM.

B10: AB24.05 (antibody, V domains shown)
VH: B1 VH with Q1E, M2V, T14P, S16A, S17T, V20I, A24V
VL: B1 VL
For the molecule B10, in test [2], the “EC50 (read off the curve)” value is ~0.2 nM.

B11: AB25.05 (antibody, V domains shown)
VH: B1 VH with Q1E, M2V, T14P, S16A, S17T, V20I, A24V, R38Q, Q43K, A44G
VL: B1 VL
Turning to B11, the “EC50 (read off the curve)” value in test [2] is ~0.3 nM.

B12: AB23.05 (antibody, V domains shown)
VH: B1 VH with R87T, M93V
VL: B1 VL
Consider B12, for which the half-maximal effective concentration (EC50 (read off the curve)) in [5] was ~0.1 nM.

B13: AB02.03 (antibody, V domains shown)
VH: B1 VH
VL: B1 VL with N1D, A10S, M11L, F36Y, V43A, H46L, E70D, L73F, F83I
notes: humanized variant of 2A1; also called AB2.03
On to B13, for which, in [2], the “EC50 (read off the curve)” value was ~0.5 nM.

B14: AB02.07 (antibody, V domains shown)
VH: B1 VH
VL: DIQMTQSPSSLSASVGDRVTITCRASQDIHRYLAWYQQKPGKVPKLLIYRANRLQSGVPSRFSGSGSGTDFTLTISSLQPEDVATYYCLQYDEFPYTFGQGTKVEIK
notes: humanized variant of 2A1; also called AB2.07
For the molecule B14, the “EC50 (read off the curve)” value in [2] was ~0.5 nM.

B15: humanized antibody AB6.12 (human IgG1) (antibody, V domains shown)
VH: B1 VH with N55Q
VL: B1 VL with D56S
notes: also called AB6.12-IgG1; AB6.12-hIgG1
Turning to B15, the Kd in [10] was 0.0399 nM; in test [8], 0.0386 nM. Moreover, in [9], the “IC50 (read off the curve)” value was ~0.3 nM.

B16: AB16.05 (antibody, V domains shown)
VH: B1 VH with F27Y, N28T, I29F, D31Y
VL: B1 VL
In the case of B16, the binding result in [7] was “binds”.

B17: AB6.13 (antibody, V domains shown)
VH: B1 VH with N55Q
VL: B1 VL with K24R, S26R, D28G, H46I
Take B17: the “EC50 (read off the curve)” value in [3] is ~0.03 nM; in [6] it was ~0.07 nM.

B18: AB11.05 (antibody, V domains shown)
VH: B1 VH with S104P
VL: B1 VL
For B18, in [4], the “EC50 (read off the curve)” value was ~0.2 nM.

B19: AB6.14 (antibody, V domains shown)
VH: B1 VH with N55Q
VL: B1 VL with K24R, S26R, D28G, D56S
On to B19, for which the binding result in test [6] is given as “binds”.

B20: AB02.04 (antibody, V domains shown)
VH: B1 VH
VL: B1 VL with N1D, A10S, M11L, V43A, H46S, E70D
notes: humanized variant of 2A1; also called AB2.04
Turning to B20, in test [2], the “EC50 (read off the curve)” value was ~0.2 nM.

B21: humanized antibody AB6.12-IgG4P (antibody, V domains shown)
VH: B1 VH with N55Q
VL: B1 VL with D56S
notes: Igkappa light chain; also called AB6.12-hIgG4P
Regarding B21, in test [8], the Kd is 0.0357 nM. Also, in test [9], the “IC50 (read off the curve)” value is ~0.4 nM.

B22: AB2.13 (antibody, V domains shown)
VH: B1 VH
VL: B1 VL with K24R, S26R, D28G, H46I
For B22, the concentration giving a half-maximal response (EC50 (read off the curve)) in test [3] was ~0.05 nM.

B23: AB6.17 (antibody, V domains shown)
VH: B1 VH with N55Q
VL: B1 VL with K24R, S26R, D28G, H46L, D56S
For B23, in [3], the “EC50 (read off the curve)” value was ~0.2 nM.

B24: AB10.13 (antibody, V domains shown)
VH: B1 VH with G56T
VL: B1 VL with K24R, S26R, D28G, H46I
As for B24, the binding result in test [6] was “binds”.

B25: AB12.05 (antibody, V domains shown)
VH: B1 VH with F27Y, N28T, I29F, K30T, D31Y
VL: B1 VL
Regarding B25, the “EC50 (read off the curve)” value in test [5] is ~0.1 nM.

B26: murine 9E4 antibody (antibody, mouse IgG1, V domains shown)
VH: EVQLRQSGPELVKPGASVKISCKASGYSFTDYYMYWVKQSRVRSLAWIGRINPYTGATGYDQNFKDKASLIVDKSSSTAYMELRSLTSEDSAVYYCARGRNRYDGWFAYWGQGTLVTV
VL: EIQMTQTTSSLSASLGDRVTISCRASQDISNYLNWYQQKPDGTVKLLIYYTSRLHSGVPSRFSGSGSGTDYSLTISNLDQEDIATYFCQQGNALPPTFGGGTNLEIK
Turning to B26, the “EC50 (read off the curve)” value in [11] was ~0.09 nM.

B27: chimeric 2A1 antibody (2A1-xi) (antibody, V domains shown)
VH: EVQLQQSGAELVRSGASVKLSCTASGFNIKDYYLHWVKQRPEQGLEWIGWIDPDNGDTEFAPKFQGKATMTADTSSNTAYLQLSSLTSEDTAVYYCNAAYGSSSYPMDYWGQGTSVTV
VL: DIKMTQSPSSLYASLGERVTITCKASQDIHRYLSWFQQKPGKSPKILIYRANRLVDGVPSRFSGSGSGQDYSLTISSLEYEDMGIYYCLQYDEFPYTFGGGTKLEIK
In the case of B27, the “EC50 (read off the curve)” value is ~0.2 nM in test [1]; ~0.05 nM in [3]; ~0.1 nM in [6]; ~0.05 nM in test [7]; ~0.1 nM in test [5]. Further, the Kd worked out at 0.078 nM in test [12] and 0.0364 nM in [10].
